Measured values published in patent US20080312141 (published 2008).
No end group written: not given here.

T1: cathepsin G (human, UniProt P08311)
T1 chain: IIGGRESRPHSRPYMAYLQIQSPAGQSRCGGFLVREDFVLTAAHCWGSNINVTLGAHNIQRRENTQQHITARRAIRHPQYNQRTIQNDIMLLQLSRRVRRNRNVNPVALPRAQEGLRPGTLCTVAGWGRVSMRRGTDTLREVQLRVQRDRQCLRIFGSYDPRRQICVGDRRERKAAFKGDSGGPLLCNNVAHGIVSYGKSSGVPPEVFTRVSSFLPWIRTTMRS

B1: GST-C-4 (peptide)
chain: CVAYCIEHHCWTC
B2: GST-D-1 (peptide)
chain: CLSTCAQSCRISC
modifications: not fully specified (bridges); cysteine pairing not given here; also: GST fusion protein

Experiments:
cathepsin G = molecular target: T1, cathepsin G; test: other, IFMA
trypsin = test: other, IFMA
hK2 = hK2 (human, UniProt P20151); test: other, IFMA
Chain of hK2 (P20151 25-261): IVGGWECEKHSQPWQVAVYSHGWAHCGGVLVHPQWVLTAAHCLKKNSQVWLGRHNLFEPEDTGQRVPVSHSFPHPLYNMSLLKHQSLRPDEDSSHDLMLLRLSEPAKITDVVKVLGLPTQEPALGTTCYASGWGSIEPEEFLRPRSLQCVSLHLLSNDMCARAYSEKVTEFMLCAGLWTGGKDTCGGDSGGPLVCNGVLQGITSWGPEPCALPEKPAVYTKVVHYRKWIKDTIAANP

PSA [1] = molecular target: T2, PSA (human, UniProt P07288); test: competition, IFMA with free PSA
T2 sequence (P07288 25-261): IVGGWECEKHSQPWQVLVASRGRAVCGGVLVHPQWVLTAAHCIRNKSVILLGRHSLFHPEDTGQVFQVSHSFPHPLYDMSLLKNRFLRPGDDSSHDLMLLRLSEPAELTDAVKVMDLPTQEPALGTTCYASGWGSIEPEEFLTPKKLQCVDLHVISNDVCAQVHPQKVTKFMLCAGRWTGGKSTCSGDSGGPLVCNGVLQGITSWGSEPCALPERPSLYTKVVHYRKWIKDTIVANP

PSA [2] = molecular target: T2, PSA; test: other, IFMA

| Binder | binding result (cathepsin G) | binding result (trypsin) | binding result (hK2) | IC50 (PSA [1]) [pM] | binding result (PSA [2]) |
| --- | --- | --- | --- | --- | --- |
| B1 | no binding | no binding | no binding | 700 | – |
| B2 | – | – | – | – | no binding |
